Results from US12637517B2, “Enzyme and pathway modulation with sulfhydryl compounds and their derivatives” (HOFFMANN-LA ROCHE INC., priority 2020, dated 2026).

Assays:
FcRn = FcRn (Homo sapiens, UniProt P55899); assay: Relative binding to FcRn by surface plasmon resonance (SPR); conditions: for Relative level of FcRn binding (at Day-14) (%): EXAMPLE-8, small-scale purified mAb from CHO L971 process, SPR
Source text: The neonatal Fe receptor (FcRn) influences the pharmacokinetic (PK) profile of IgG-type antibodies by its ability to salvage antibodies from the early endosome and recycle them back into circulation. The interaction with FcRn is considered to be the most critical factor in determining the PK of IgG-type therapeutic antibodies and is considered a surrogate for clearance (see review Nimmerjahn and Ravetch 2008).
(§1) Here, relative binding of the small-scale purified aSyn-L971-mAb samples to FcRn and FcγIIa (His131) by surface plasmon resonance (SPR) was determined. The relative binding of the small-scale purified aSyn-L971-mAb samples to the target was determined by ELISA.

Fcγ-RIIa (H131) = target: T1, Fcγ-RIIa (H131) (Homo sapiens, UniProt P12318); assay: Relative binding to FcγIIa (His131) by surface plasmon resonance (SPR); conditions: for Relative level of FcyRIIa binding (at Day-14) (%): EXAMPLE-8, small-scale purified mAb from CHO L971 process, SPR, H131 allotype
T1 sequence (P12318 34-217 limits assumed): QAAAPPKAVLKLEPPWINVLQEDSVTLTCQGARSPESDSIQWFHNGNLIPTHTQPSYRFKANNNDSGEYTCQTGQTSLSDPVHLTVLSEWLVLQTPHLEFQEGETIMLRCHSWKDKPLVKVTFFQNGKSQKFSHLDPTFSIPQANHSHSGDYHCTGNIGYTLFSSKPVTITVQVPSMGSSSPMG
Source text: Fcγ-receptors are mediators of effector functions on immune effector cells. Among the different human Fcγ-receptors, Fcγ-RIIa is considered to be a dominant factor in mediating antibody dependent phagocytosis (ADCP). Of the two most prevalent allotypes of Fcγ-RIIa, the form with a histidine at amino acid position 131 (H131) is often described as the higher affinity allotype. (Nimmerjahn and Ravetch 2008, Yamada et al. 2013)
as §1

human α-synuclein = human α-synuclein (Homo sapiens, UniProt P37840); assay: Relative binding to the target by ELISA; conditions: for Relative level of Target binding (at Day-14) (%): EXAMPLE-8, small-scale purified mAb from CHO L971 process, ELISA
Procedure: as §1

FcRn, sequence (P55899 24-297 limits assumed): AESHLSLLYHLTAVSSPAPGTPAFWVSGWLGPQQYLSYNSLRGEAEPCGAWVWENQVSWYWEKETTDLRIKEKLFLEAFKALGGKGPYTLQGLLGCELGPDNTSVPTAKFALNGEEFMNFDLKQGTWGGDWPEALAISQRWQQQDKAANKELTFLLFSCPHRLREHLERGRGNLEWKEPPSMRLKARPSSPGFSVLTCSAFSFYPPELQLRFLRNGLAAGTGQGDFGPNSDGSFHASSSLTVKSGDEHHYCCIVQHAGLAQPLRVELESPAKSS
FcRn, sequence (P61769 21-119 partner): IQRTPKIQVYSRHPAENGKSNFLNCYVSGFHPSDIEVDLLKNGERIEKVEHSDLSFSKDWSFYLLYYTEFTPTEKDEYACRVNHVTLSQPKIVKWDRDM

anti-α-synuclein antibody L971: anti-human α-synuclein monoclonal antibody expressed by CHO L971 cell-line; CHO L971 cells produce Prasinezumab
FcRn relative binding level, higher than from the process with 3 mM L-cystine (FcRn; FIG. 11C, antibody from process with 6 mM L-cysteine vs 3 mM L-cystine): about 33% | FcRn relative binding level (FcRn; FIG. 11C, antibody from the process with 3 mM L-cystine in production medium): about 85% | FcRn relative binding level (FcRn; FIG. 11C, antibody from the process with 6 mM L-cysteine in production medium): about 118% | Fcγ-RIIa (H131) relative binding level, higher than from the process with 3 mM L-cystine (Fcγ-RIIa (H131); FIG. 11D, antibody from process with 6 mM L-cysteine vs 3 mM L-cystine): about 36% | Fcγ-RIIa (H131) relative binding level (Fcγ-RIIa (H131); FIG. 11D, antibody from the process with 3 mM L-cystine in production medium): about 77% | Fcγ-RIIa (H131) relative binding level (Fcγ-RIIa (H131); FIG. 11D, antibody from the process with 6 mM L-cysteine in production medium): about 113% | target relative binding level, higher than from the process with 3 mM L-cystine (human α-synuclein; FIG. 11E, antibody from process with 6 mM L-cysteine vs 3 mM L-cystine): about 35% | target relative binding level (human α-synuclein; FIG. 11E, antibody from the process with 3 mM L-cystine in production medium): about 83% | target relative binding level (human α-synuclein; FIG. 11E, antibody from the process with 6 mM L-cysteine in production medium): about 118%

anti-α-synuclein L971 (3 mM Cystine): anti-human α-synuclein monoclonal antibody (Prasinezumab) from CHO L971 process with 3 mM L-cystine in production medium
Relative level of FcRn binding (at Day-14) (%) (FcRn): 85.0% | Relative level of FcyRIIa binding (at Day-14) (%) (Fcγ-RIIa (H131)): 77.0% | Relative level of Target binding (at Day-14) (%) (human α-synuclein): 83.0%

anti-α-synuclein L971 (6 mM Cysteine): anti-human α-synuclein monoclonal antibody (Prasinezumab) from CHO L971 process with 6 mM L-cysteine in production medium
Relative level of FcRn binding (at Day-14) (%) (FcRn): 118.0% | Relative level of FcyRIIa binding (at Day-14) (%) (Fcγ-RIIa (H131)): 113.0% | Relative level of Target binding (at Day-14) (%) (human α-synuclein): 118.0%
